According to patent US20150160219:

Biological target: T1, Indicator molecule of Example 3 (synthetic peptide with MMP-9 sequence, HNE sequence, DNP, fluorescent label and terminal biotin via PEG)
T1 chain: GPQGIFGQGAAPVA

B1: human neutrophil elastase (HNE) (Lee biotech, 342-40) (protein)
chain: IVGGRRARPHAWPFMVSLQLRGGHFCGATLIAPNFVMSAAHCVANVNVRAVRVVLGAHNLSRREPTRQVFAVQRIFENGYDPVNLLNDIVILQLNGSATINANVQVAQLPAQGRRLGNGVQCLAMGWGLLGRNRGIASVLQELNVTVVTSLCRRSNVCTLVRGRQAGVCFGDSGSPLVCNGLIHGIASFVRGGCASGLYPDAFAPVAQFVNWIDSIIQ
For B1, the “detectable limit of the lateral flow cleavage assay” value was “approximately 62.5-125 ng/ml”.
